Data set [1] relates to HeLa Kyoto. Kind of data set: melting temperature (median over replicates), in situ; higher = more thermally stable.
Data set [2] deals with HeLa Kyoto. Kind of data set: thermal stability score vs G1/S (z-score of summed log2 fold changes over temperatures); higher = more thermally stable than in G1/S.
[3] abbreviates: cell cycle stage: early G1 (4.5 h after nocodazole release).
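Throughout, for melting temperature (median over replicates), in situ: HeLa Kyoto cells synchronized by double thymidine or nocodazole block, proteins quantified by TMT10plex mass spectrometry, three independent biological replicates.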
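Throughout, for thermal stability score vs G1/S (z-score of summed log2 fold changes over temperatures): synchronized HeLa Kyoto cells, proteins quantified by TMT10plex mass spectrometry, three biological replicates, mitosis taken 0.5 h after nocodazole release, G1/S directly after double thymidine block.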

On to “METDLNSQDRKDLDKFIKFFALKTVQVIVQARLGEKICTRSSSSPTGSDWFNLAIKDIPEVTHEAKKALAGQLPAVGRSMCVEISLKTSEGDSMELEIWCLEMNEKCDKEIKVSYTVYNRLSLLLKSLLAITRVTPAYRLSRKQGHEYVILYRIYFGEVQLSGLGEGFQTVRVGTVGTPVGTITLSCAYRINLAFMSTRQFERTPPIMGIIIDHFVDRPYPSSSPMHPCNYRTAGEDTGVIYPSVEDSQEVCTTSFSTSPPSQLSSSRLSYQPAALGVGSADLAYPVVFAAGLNATHPHQLMVPGKEGGVPLAPNQPVHGTQADQERLATCTPSDRTHCAATPSSSEDTETVSNSSEGRASPHDVLETIFVRKVGAFVNKPINQVTLTSLDIPFAMFAPKNLELEDTDPMVNPPDSPETESPLQGSLHSDGSSGGSSGNTHDDFVMIDFKPAFSKDDILPMDLGTFYREFQNPPQLSSLSIDIGAQSMAEDLDSLPEKLAVHEKNVREFDAFVETLQ [ATG13]”, for which the melting temperature in data set [1] (cell cycle stage: G1/S) was found to be 51.7 °C; in data set [1] (cell cycle stage: mitosis), 52.2 °C. Also, the results for the thermal stability score in data set [2] (setting [3]) and in data set [2] (cell cycle stage: mitosis) were 0.178 and -1.05, respectively.
For “MEVVEAAAAQLETLKFNGTDFGVGEGPAAPSPGSAPVPGTQPPLQSFEGSPDAGQTVEVKPAGEQPLQPVLNAVAAGTPAPQPQPPAESPACGDCVTSPGAAEPARAPDSLETSDSDSDSDSETDSDSSSSSSSSSSSSSSSSSSCISLPPVLSDGDDDLQIEKENKNFPLKTKDELLLNELPSVEELTIILPEDIELKPLGMVSSIIEQLVIIESMTNLPPVNEETVIFKSDRQAAGKIFEIFGPVAHPFYVLRFNSSDHIESKGIKIKETMYFAPSMKDFTQYIFTEKLKQDKGSDASWKNDQEPPPEALDFSDDEKEKEAKQRKKSQIQGRKKLKSEFNEPGEDFTEVHQNWNAHSSASEHAKGYRNREFTRGFSRARYPRSCHGRPPPQHFYNSEHMVSQETSGFPSQRQNNPIMPQYPFPLPVFDMHNFPLRPPPPPPPPPVNMGWATPNMAAHPLLNLPYSLPPPPPPPPLPPPPSSGDSNSHFGPYY [NAF1]”, in that order: 52 °C, 52.1 °C, 0.0445 and -1.83.
In turn, “MGLPALEFSDCCLDSPHFRETLKSHEAELDKTNKFIKELIKDGKSLISALKNLSSAKRKFADSLNEFKFQCIGDAETDDEMCIARSLQEFATVLRNLEDERIRMIENASEVLITPLEKFRKEQIGAAKEAKKKYDKETEKYCGILEKHLNLSSKKKESQLQEADSQVDLVRQHFYEVSLEYVFKVQEVQERKMFEFVEPLLAFLQGLFTFYHHGYELAKDFGDFKTQLTISIQNTRNRFEGTRSEVESLMKKMKENPLEHKTISPYTMEGYLYVQEKRHFGTSWVKHYCTYQRDSKQITMVPFDQKSGGKGGEDESVILKSCTRRKTDSIEKRFCFDVEAVDRPGVITMQALSEEDRRLWMEAMDGREPVYNSNKDSQSEGTAQLDSIGFSIIRKCIHAVETRGINEQGLYRIVGVNSRVQKLLSVLMDPKTASETETDICAEWEIKTITSALKTYLRMLPGPLMMYQFQRSFIKAAKLENQESRVSEIHSLVHRLPEKNRQMLQLLMNHLANVANNHKQNLMTVANLGVVFGPTLLRPQEETVAAIMDIKFQNIVIEILIENHEKIFNTVPDMPLTNAQLHLSRKKSSDSKPPSCSERPLTLFHTVQSTEKQEQRNSIINSSLESVSSNPNSILNSSSSLQPNMNSSDPDLAVVKPTRPNSLPPNPSPTSPLSPSWPMFSAPSSPMPTSSTSSDSSPVRSVAGFVWFSVAAVVLSLARSSLHAVFSLLVNFVPCHPNLHLLFDRPEEAVHEDSSTPFRKAKALYACKAEHDSELSFTAGTVFDNVHPSQEPGWLEGTLNGKTGLIPENYVEFL [ARHGAP26]” returned a melting temperature in data set [1] (cell cycle stage: mitosis) of 52 °C. Besides, the thermal stability score was -0.227 in data set [2] (setting [3]) and -0.147 in data set [2] (cell cycle stage: mitosis).
On to “MGRSRSRSPRRERRRSRSTSRERERRRRERSRSRERDRRRSRSRSPHRRRSRSPRRHRSTSPSPSRLKERRDEEKKETKETKSKERQITEEDLEGKTEEEIEMMKLMGFASFDSTKGKKVDGSVNAYAINVSQKRKYRQYMNRKGGFNRPLDFIA [SNRNP27]”, for which the melting temperature in data set [1] (cell cycle stage: G1/S) turned out to be 54 °C; in data set [1] (cell cycle stage: mitosis), 53.3 °C. The thermal stability score amounted to 1.03 in data set [2] (setting [3]) and 0.903 in data set [2] (cell cycle stage: mitosis).
For “MGSQEVLGHAARLASSGLLLQVLFRLITFVLNAFILRFLSKEIVGVVNVRLTLLYSTTLFLAREAFRRACLSGGTQRDWSQTLNLLWLTVPLGVFWSLFLGWIWLQLLEVPDPNVVPHYATGVVLFGLSAVVELLGEPFWVLAQAHMFVKLKVIAESLSVILKSVLTAFLVLWLPHWGLYIFSLAQLFYTTVLVLCYVIYFTKLLGSPESTKLQTLPVSRITDLLPNITRNGAFINWKEAKLTWSFFKQSFLKQILTEGERYVMTFLNVLNFGDQGVYDIVNNLGSLVARLIFQPIEESFYIFFAKVLERGKDATLQKQEDVAVAAAVLESLLKLALLAGLTITVFGFAYSQLALDIYGGTMLSSGSGPVLLRSYCLYVLLLAINGVTECFTFAAMSKEEVDRYNFVMLALSSSFLVLSYLLTRWCGSVGFILANCFNMGIRITQSLCFIHRYYRRSPHRPLAGLHLSPVLLGTFALSGGVTAVSEVFLCCEQGWPARLAHIAVGAFCLGATLGTAFLTETKLIHFLRTQLGVPRRTDKMT [RFT1]”, in that order: 57.1 °C, 56.9 °C, -1.46 and -1.12.
In data set [1] (cell cycle stage: mitosis), “MGVNAVHWFRKGLRLHDNPALKECIQGADTIRCVYILDPWFAGSSNVGINRWRFLLQCLEDLDANLRKLNSRLFVIRGQPADVFPRLFKEWNITKLSIEYDSEPFGKERDAAIKKLATEAGVEVIVRISHTLYDLDKIIELNGGQPPLTYKRFQTLISKMEPLEIPVETITSEVIEKCTTPLSDDHDEKYGVPSLEELGFDTDGLSSAVWPGGETEALTRLERHLERKAWVANFERPRMNANSLLASPTGLSPYLRFGCLSCRLFYFKLTDLYKKVKKNSSPPLSLYGQLLWREFFYTAATNNPRFDKMEGNPICVQIPWDKNPEALAKWAEGRTGFPWIDAIMTQLRQEGWIHHLARHAVACFLTRGDLWISWEEGMKVFEELLLDADWSINAGSWMWLSCSSFFQQFFHCYCPVGFGRRTDPNGDYIRRYLPVLRGFPAKYIYDPWNAPEGIQKVAKCLIGVNYPKPMVNHAEASRLNIERMKQIYQQLSRYRGLGLLASVPSNPNGNGGFMGYSAENIPGCSSSGSCSQGSGILHYAHGDSQQTHLLKQGRSSMGTGLSGGKRPSQEEDTQSIGPKVQRQSTN [CRY1]” gave a melting temperature of 52 °C. The thermal stability score in data set [2] (setting [3]) was 0.298; in data set [2] (cell cycle stage: mitosis), -0.281.
Consider “MIKAILIFNNHGKPRLSKFYQPYSEDTQQQIIRETFHLVSKRDENVCNFLEGGLLIGGSDNKLIYRHYATLYFVFCVDSSESELGILDLIQVFVETLDKCFENVCELDLIFHVDKVHNILAEMVMGGMVLETNMNEIVTQIDAQNKLEKSEAGLAGAPARAVSAVKNMNLPEIPRNINIGDISIKVPNLPSFK [AP3S1]”, for which the melting temperature in data set [1] (cell cycle stage: G1/S) was found to be 50.8 °C; in data set [1] (cell cycle stage: mitosis) it was 51.2 °C. Further, the thermal stability score in data set [2] (setting [3]) is -0.187; in data set [2] (cell cycle stage: mitosis) it was -0.378.
For “MLKPALEPRGGFSFENCQRNASLERVLPGLKVPHARKTGTTIAGLVFQDGVILGADTRATNDSVVADKSCEKIHFIAPKIYCCGAGVAADAEMTTRMVASKMELHALSTGREPRVATVTRILRQTLFRYQGHVGASLIVGGVDLTGPQLYGVHPHGSYSRLPFTALGSGQDAALAVLEDRFQPNMTLEAAQGLLVEAVTAGILGDLGSGGNVDACVITKTGAKLLRTLSSPTEPVKRSGRYHFVPGTTAVLTQTVKPLTLELVEETVQAMEVE [PSMB10]” the same measures were 53.3 °C, 52.6 °C, 0.227 and 0.56.
With “MREIVHLQAGQCGNQIGAKFWEVISDEHGIDPTGTYHGDSDLQLERINVYYNEATGGKYVPRAVLVDLEPGTMDSVRSGPFGQIFRPDNFVFGQSGAGNNWAKGHYTEGAELVDSVLDVVRKEAESCDCLQGFQLTHSLGGGTGSGMGTLLISKIREEYPDRIMNTFSVVPSPKVSDTVVEPYNATLSVHQLVENTDETYCIDNEALYDICFRTLKLTTPTYGDLNHLVSATMSGVTTCLRFPGQLNADLRKLAVNMVPFPRLHFFMPGFAPLTSRGSQQYRALTVPELTQQMFDAKNMMAACDPRHGRYLTVAAVFRGRMSMKEVDEQMLNVQNKNSSYFVEWIPNNVKTAVCDIPPRGLKMSATFIGNSTAIQELFKRISEQFTAMFRRKAFLHWYTGEGMDEMEFTEAESNMNDLVSEYQQYQDATAEEEGEFEEEAEEEVA [TUBB4B]”, the melting temperature in data set [1] (cell cycle stage: mitosis) was found to be 54.4 °C. The thermal stability score in data set [2] (setting [3]) was 0.304; in data set [2] (cell cycle stage: mitosis), -1.31.
As to “MSGGRAPAVLLGGVASLLLSFVWMPALLPVASRLLLLPRVLLTMASGSPPTQPSPASDSGSGYVPGSVSAAFVTCPNEKVAKEIARAVVEKRLAACVNLIPQITSIYEWKGKIEEDSEVLMMIKTQSSLVPALTDFVRSVHPYEVAEVIALPVEQGNFPYLQWVRQVTESVSDSITVLP [CUTA]”, the melting temperature in data set [1] (cell cycle stage: G1/S) amounted to 57.7 °C; in data set [1] (cell cycle stage: mitosis) it was 54.8 °C. Also, the thermal stability score is -1.46 in data set [2] (setting [3]) and -1.38 in data set [2] (cell cycle stage: mitosis).

For the origin of these results see the supplement of paper PMC5998384.
